# Source: patent publication US20250114467A1 (SHANGHAI FUDAN ZHANGJIANG BIO PHARMACEUTICAL, published 2025)
# T1: human DLL3, His tag (acrobiosystems, DL3-H52H4) (human, UniProt Q9NYJ7 27-492)
# T1 construct: Bought; also called human DLL3 protein; free DLL3; not shown: His tag
# T1 sequence (looked up): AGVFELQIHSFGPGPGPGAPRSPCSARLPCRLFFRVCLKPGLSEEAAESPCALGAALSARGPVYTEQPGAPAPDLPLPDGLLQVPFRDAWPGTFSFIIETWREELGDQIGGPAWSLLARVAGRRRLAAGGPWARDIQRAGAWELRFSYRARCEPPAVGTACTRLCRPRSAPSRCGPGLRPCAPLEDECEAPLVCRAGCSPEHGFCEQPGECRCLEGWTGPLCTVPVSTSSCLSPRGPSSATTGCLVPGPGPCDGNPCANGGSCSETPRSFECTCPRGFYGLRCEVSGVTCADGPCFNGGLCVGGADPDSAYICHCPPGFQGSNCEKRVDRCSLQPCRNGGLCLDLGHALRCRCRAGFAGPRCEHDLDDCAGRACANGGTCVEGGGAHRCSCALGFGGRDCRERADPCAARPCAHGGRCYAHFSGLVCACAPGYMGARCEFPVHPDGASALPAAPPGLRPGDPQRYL
# T2: human DLL1 (purchased from Acro, DL1-H52H8) (human, UniProt O00548 18-540)
# T2 construct: Bought; also called hDLL1
# T2 sequence (looked up): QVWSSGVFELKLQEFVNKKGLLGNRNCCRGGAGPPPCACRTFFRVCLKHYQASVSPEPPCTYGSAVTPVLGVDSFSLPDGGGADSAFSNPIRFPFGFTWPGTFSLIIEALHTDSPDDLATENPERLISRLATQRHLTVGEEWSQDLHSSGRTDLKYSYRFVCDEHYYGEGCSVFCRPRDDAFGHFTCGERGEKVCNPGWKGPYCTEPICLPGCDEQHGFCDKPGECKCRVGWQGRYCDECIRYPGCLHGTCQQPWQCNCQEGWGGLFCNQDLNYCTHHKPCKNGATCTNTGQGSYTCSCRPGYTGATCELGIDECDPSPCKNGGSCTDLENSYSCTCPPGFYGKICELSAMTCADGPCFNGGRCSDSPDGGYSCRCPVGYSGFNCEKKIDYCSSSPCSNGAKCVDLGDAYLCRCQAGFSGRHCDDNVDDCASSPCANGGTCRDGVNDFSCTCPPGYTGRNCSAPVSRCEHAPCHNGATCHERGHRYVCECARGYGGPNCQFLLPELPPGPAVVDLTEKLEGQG
# Key:
# [1] = target: T1, human DLL3, His tag (acrobiosystems, …); assay: BLI (Octet 96e), antibody on sensor, DLL3-His 100-3.13 nM in solution
# Protocol: To assess the affinity of antibodies for human DLL3 protein, this study employed the BLI method to detect the binding kinetics curves of immobilized antibodies with free DLL3. The method was conducted according to the instrument's user manual (supplier: Fortebio, equipment model: Octet 96e). Briefly, AMC sensors were equilibrated for 60 s with Loading Buffer/Sample dilution buffer (1×PBS, pH7.4, with 0.1% BSA and 0.02% Tween-20) to obtain Baseline 1. The antibodies to be detected were diluted with Loading Buffer to a concentration of 10 ug/ml and bound to the equilibrated sensors, after which the sensors were re-equilibrated with Loading Buffer to obtain Baseline 2. The antibody-loaded sensors were then placed in human DLL3, His tag (supplier: acrobiosystems, catalog number: DL3-H52H4) diluted with Sample Dilution Buffer to concentrations ranging from 100 to 3.13 nM for 90 s to obtain the antibody-protein binding curve. Then, the sensors combined with antigen were placed in the Sample Dilution Buffer again and dissociated for 180 s, and the dissociation curve was obtained. The k-on and k-off values of the antibody-protein binding were calculated based on the binding and dissociation curves, and the KD values were calculated, with the results shown in Table 4.
# [2] = target: T2, human DLL1 (purchased from Acro, …); assay: ELISA on plate-coated human DLL1 protein (1 µg/ml), HRP goat anti-human secondary, OD 450 nm [left panel]
# Protocol: (§1) The chimeric antibodies obtained in Example 6 were evaluated for their binding abilities to human DLL1 (purchased from Acro, DL1-H52H8) and DLL4 (purchased from Acro, DL4-H5227) proteins using the ELISA method. The ELISA detection method involved diluting DLL1 and DLL4 proteins with PBS to a final concentration of 1 μg/ml and coating them onto 384-well ELISA plates (purchased from Corning, 3700) at 4° C. overnight. The next day, the supernatant in the plate wells was discarded, and the wells were blocked with 80 μl of 3% milk (dissolved in PBS) for 2 hours, followed by washing three times with 80 μl of PBST (0.1% Tween20). […] After washing with 80 μl of PBST (0.1% Tween20) for five times, 25 μl of HRP-labeled goat anti-human secondary antibody (Jackson, 1:10000) was added to each well and incubated at room temperature for 1 hour, discard the supernatant, and the wells were then washed seven times with 80 μl of PBST (0.1% Tween20). After adding 25 μl of TMB chromogen solution for 10 minutes, the reaction was terminated with 2M HCl, and the absorbance value at 450 nm was measured with a Microplate reader (purchased from Biotek, Elx808). […] To assess the cross-reactivity of the antibodies with mouse and monkey DLL3, mouse DLL3-expressing plasmid pCMV3-mDLL3 (purchased from Beijing Yiqiao, MG58052-UT) and monkey DLL3-expressing plasmid pCMV3-rheDLL3 (purchased from Beijing Yiqiao, CG90919-UT) were used to construct overexpressing cell lines. The construction of overexpressing cells was as described in Examples 2-3. The binding abilities of the chimeric antibodies to these cells were determined by flow cytometry to assess the cross-reactivity of the antibodies with different species.
# [3] = target: T3, human DLL4 (purchased from Acro, DL4-H5227) (human, UniProt Q9NR61 27-524); assay: ELISA on plate-coated human DLL4 protein (1 µg/ml), HRP goat anti-human secondary, OD 450 nm [right panel]
# T3 construct: Bought; also called hDLL4
# Protocol: as §1
# T3 sequence (Q9NR61 27-524 limits assumed): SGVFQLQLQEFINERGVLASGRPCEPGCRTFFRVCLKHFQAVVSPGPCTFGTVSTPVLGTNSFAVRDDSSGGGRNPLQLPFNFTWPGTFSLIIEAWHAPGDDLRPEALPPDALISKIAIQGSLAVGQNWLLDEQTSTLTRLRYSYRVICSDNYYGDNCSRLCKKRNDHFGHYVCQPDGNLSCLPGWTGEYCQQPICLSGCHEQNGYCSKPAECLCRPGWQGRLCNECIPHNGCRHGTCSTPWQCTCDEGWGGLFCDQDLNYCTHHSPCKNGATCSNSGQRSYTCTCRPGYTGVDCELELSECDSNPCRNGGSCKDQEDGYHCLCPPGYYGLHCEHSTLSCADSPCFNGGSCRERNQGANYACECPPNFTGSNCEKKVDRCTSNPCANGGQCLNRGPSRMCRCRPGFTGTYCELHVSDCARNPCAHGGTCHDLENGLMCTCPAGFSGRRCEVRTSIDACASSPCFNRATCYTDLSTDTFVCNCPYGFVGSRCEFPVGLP
Kd [1],koff [1],kon [1],binding result [2],binding result [3],Binder
0.204 nM,0.000279 s⁻¹,1.37e+06 M⁻¹ s⁻¹,no binding (tested: 20 µg/ml),–,"ch10B1 (antibody, human IgG1, kappa, V domains shown, Chimeric: murine variable regions on human IgG1 heavy and kappa light constant regions; also called chimeric antibody 10B1) VH: DVKLVESGGGLVKPGGSLKLSCAASGFTFSNYTISWVRQTPEKRLEWVATFSSGGSYTYYSDSVKGRFTISRDNAKNTLYLQMSSLKSEDTAMYYCSRDRRSDGYYHLYAMDYWGQGTSVTVSS VL: DIQMTQTTSSLSASLGDRVTISCRASQDISHYLNWYQQKPDGTVKLLIYYTSRLHSGVPSRFSGSGSGTAYSLTISNLEQEDIATYFCQQGYTLPLTFGAGTKLELKR"
0.0702 nM,0.000121 s⁻¹,1.72e+06 M⁻¹ s⁻¹,no binding (tested: 20 µg/ml),no binding (tested: 20 µg/ml),"ch15G2 (antibody, human IgG1, kappa, V domains shown, Chimeric: murine variable regions on human IgG1 heavy and kappa light constant regions; also called chimeric antibody 15G2) VH: EVQLQQSGPELEKPGASVRISCKASGYSFTDYNMHWVKQSNGKSLEWIGNIDPYYGGTNYNQKFEGKATLTVDKSSSTAYMQLKSLTSEDSAVYYCARGGNNYGDYWGQGTTLTVSS VL: DIQMTQSPASLAASVGETVTITCRASENIYYSLAWYQQKQGKSPQLLIFNANSLEDGVPSRFSGSGSGTQYSMKINSMQPEDTATYFCKQAYDVPWTFGGGTKLEIKR"
0.466 nM,0.000684 s⁻¹,1.47e+06 M⁻¹ s⁻¹,no binding (tested: 20 µg/ml),binds,"ch6A2 (antibody, human IgG1, kappa, V domains shown, Chimeric: murine variable regions on human IgG1 heavy and kappa light constant regions; also called chimeric antibody 6A2) VH: EVQLQQSGPELVKPGASVKISCKASGYTFTDYNMNWVKQSQGKSLEWIGYIYPYNGGTGYNQKFKTKATLTVDNSSSTAYMEFRSLTSEDSAVYYCARSDPYYTMDYWGQGTSVTVSS VL: IIVMTQTPKFLLVSAGDRVTISCKASQSVNNDVAWYQQKPGQSPKLLIYFTSNRFTGVPDRFTGSGYGTDFTFTISSVQAEDLAVYFCQQDHNSPYTFGGGTKLEIKR"
5.37 nM,0.0012 s⁻¹,223000 M⁻¹ s⁻¹,no binding (tested: 20 µg/ml),no binding (tested: 20 µg/ml),"ch13C2 (antibody, human IgG1, kappa, V domains shown, Chimeric: murine variable regions on human IgG1 heavy and kappa light constant regions; also called chimeric antibody 13C2) VH: EVKLVESGGGLVKPGGSLKLSCAASGFAFSSYDMSWVRQTPEKRLEWVATISSGGSYTYYPDSVKGRFTISRDNGRNTLYLQMSSLRSEDTALYYCASPLLGLRFAYWGQGTLVTVSA VL: QAVVTQESALTTSPGETVTLTCRSSTGAVTTINYANWVQEKPDHLFTGLIGGTNNRAPGVPARFSGSLIGDKAALTITGAQTEDEAIYFCALYYSNHWVFGGGTKLTVLR"
0.09 nM,0.000134 s⁻¹,1.49e+06 M⁻¹ s⁻¹,no binding (tested: 20 µg/ml),no binding (tested: 20 µg/ml),"ch32E8 (antibody, human IgG1, kappa, V domains shown, Chimeric: murine variable regions on human IgG1 heavy and kappa light constant regions; also called chimeric antibody 32E8) VH: QVTLKESGPGILQPSQTLSLTCSFSGFSLSTSGMGVGWIRQPSGKGLEWLALIWWDDVKRYHPALKSRLTISKDTSSSQVFLKIASVDTADTATYYCARIAEVTGQVGLHYAMDYWGQGTSVTVSS VL: QTVLTQSPAIMSASLGERVTMTCTASSSVNSSSLHWYQQKPGSSPKLWIYTTSNLASGVPARFSGSGSGTSYSLTISSMEAEDAATYYCHQFHRSPFTFGSGTKLEIKR"
0.0158 nM,2.79e-05 s⁻¹,1.76e+06 M⁻¹ s⁻¹,no binding (tested: 20 µg/ml),–,"ch23G2 (antibody, human IgG1, kappa, V domains shown, Chimeric: murine variable regions on human IgG1 heavy and kappa light constant regions; also called chimeric antibody 23G2) VH: QVQLQQSGPELVRPGVSVKISCKGSGYTFTDYAIHWVKQSRAKSPEWIGIVSTDSGKTSFNQKFKGKATMTVDKSSTTAYMELVRLTSEDSAIYYCARNPYYDYDGYAMDYWGQGTSVTVSS VL: DIQMTQSSSYLSVSLGGRVTIICKASDHINNWLAWYQQKPGNAPRLIISGATSLETGVPSRFSGSGSGKDYTLSITSLQTEDVATYYCQQYWSIPYTFGGGTKLEIKR"
0.739 nM,0.000962 s⁻¹,1.3e+06 M⁻¹ s⁻¹,no binding (tested: 20 µg/ml),no binding (tested: 20 µg/ml),"ch19C7 (antibody, human IgG1, kappa, V domains shown, Chimeric: murine variable regions on human IgG1 heavy and kappa light constant regions; also called chimeric antibody 19C7) VH: EVQLQQSGPELVRPGASVRMSCKASGYTFTYYVMHWVKQKPGLGLEWIGYINPYNDGTEYNEKFKGKATLTSDKSSSTAFMELSSLTSEDSAVYYCARWLLREYAMDYWGQGTSVTVSS VL: DIQMTQSPASLSASVGETVTITCRASDNIHNYLAWYQQKQGKSPQLLVYNAKTLADGVPSRFSGSGSGTQYSLKINSLQPEDFGSYYCQHFWSTPWTFGGGTKLEIKR"
0.0381 nM,6.58e-05 s⁻¹,1.73e+06 M⁻¹ s⁻¹,no binding (tested: 20 µg/ml),no binding (tested: 20 µg/ml),"ch26D9 (antibody, human IgG1, kappa, V domains shown, Chimeric: murine variable regions on human IgG1 heavy and kappa light constant regions; also called chimeric antibody 26D9) VH: EVQLQQSGPELVKPGASVKMSCKASGYTFTTYVMHWVKQKPGQGLEWIGYINPYNDDTNYNEKFKGKATLTSDKSSSTAYMELSSLTSEDSAVYYCARWGLTGTGDYYAMDYWGQGTSVTVSS VL: DIQMTQSPASLSASVGETVTITCRASGNVHNYLAWYQQKQGRSPQVLVYNAKTLADGVPSRFSGSGSGTQYSLKINSLLPEDFGSYYCQHFWTTPWTFGGGTTLEIKR"
0.0521 nM,6.31e-05 s⁻¹,1.21e+06 M⁻¹ s⁻¹,no binding (tested: 20 µg/ml),no binding (tested: 20 µg/ml),"ch33F11 (antibody, human IgG1, kappa, V domains shown, Chimeric: murine variable regions on human IgG1 heavy and kappa light constant regions; also called chimeric antibody 33F11) VH: EVQLQQSGPELVKPGASVKISCKTSGYTFTENTMHWVKQSHGESLEWIGGINPRNGVTSYNQKFKGKATLTVDKSSSTAYMELRSLTSEDSAVYYCTNTYYRDYFDYWGQGTTLTVSS VL: NIVMTQSPKSMSMSVGERVTLSCKASENVGTYVSWYQQKPDQSPKLLIYGASNRYTGVPDRFTGSGSPTDFTLTISRMQAEDLAHYYCGQTYTYPLTFGAGTKLELKR"
0.0597 nM,7.4e-05 s⁻¹,1.24e+06 M⁻¹ s⁻¹,no binding (tested: 20 µg/ml),no binding (tested: 20 µg/ml),"ch1A5 (antibody, human IgG1, kappa, V domains shown, Chimeric: murine variable regions on human IgG1 heavy and kappa light constant regions, expressed in 293F cells; also called chimeric antibody 1A5) VH: EVQLQQSGPELVKPGASVKISCKTSGYTFTESAMHWVKQSHGKSLEWIGGINPNNGGISYSQKFKGKATLTVDKSSSTAYMELRSLTSEDSAVYYCGSSYYRDYFDYWGQGTTLTVSS VL: NIVMTQSPESMSMSVGERVTLSCKASENVGTYVSWYQQKPDQSPKLLIYGASNRYTGVPDRFTGSGSATHFTLTISSVQAEDLADYHCGQSYSYPLTFGAGTKLELKR"
